Test results as given in publication PMC12464775, “Selective and Potent Peptide Binders of RNF43 for Wnt Signaling Inhibition” (ACS Central Science, 2025).

Molecular target: T1, extracellular domain (ECD) of the human RNF43 protein, biotinylated, Q68DV7
T1 chain: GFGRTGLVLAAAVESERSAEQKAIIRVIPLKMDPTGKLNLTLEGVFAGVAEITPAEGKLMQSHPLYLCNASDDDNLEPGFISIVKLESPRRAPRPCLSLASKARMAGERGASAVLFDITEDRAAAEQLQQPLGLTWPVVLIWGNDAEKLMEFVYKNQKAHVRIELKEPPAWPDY
Experiment: SPR
Settings: chain shown with the change;; parent: 1.1 ± 0.07 nM

EQCTSTQDLCHDASHVCCWPLDCRWAVKYQWFWDCIG [GUR-1.6.12.2 Y13A] gave a Kd of 36 nM.
